The labels stand for the following.
B1: TS-38: t-stem variant of Trpchr17.trna39, SEQ ID NO: 3 (nucleic acid)
chain: GGCCTCGTGGCGCAACGGTAGCGCGTCTGACTTCAGATCAGAAGGTTCCGGGTTCAAATCCCGGCGGGGTCA
modifications: expressed or natural sequence
B2: ArgTGAchr1.trna10/withintron: ACE-tRNA Arg, TGA suppressor, SEQ ID NO: 11 (nucleic acid)
chain: CGTCGGCTCCGTGGCGCAATGGATAGCGCATTGGACTTCAAGAGGCTGAAGGCATTCAAAGGTTCCGGGTTCGAGTCCCGGCGGAGTCG
modifications: expressed or natural sequence
B3: ArgTGAchr9.trna6/withintron: ACE-tRNA Arg, TGA suppressor, SEQ ID NO: 9 (nucleic acid)
chain: CGTCGGCTCTGTGGCGCAATGGATAGCGCATTGGACTTCAAGCTGAGCCTAGTGTGGTCATTCAAAGGTTGTGGGTTCGAGTCCCACCAGAGTCG
modifications: expressed or natural sequence
B4: ArgTGAchr16.trna3: ACE-tRNA Arg, TGA suppressor, SEQ ID NO: 10 (nucleic acid)
chain: CGTCGCCCCGGTGGCCTAATGGATAAGGCATTGGCCTTCAAAGCCAGGGATTGTGGGTTCGAGTCCCACCCGGGGTA
modifications: expressed or natural sequence
B5: ArgTGAchr17.trna3/withinron: ACE-tRNA Arg, TGA suppressor, SEQ ID NO: 12 (nucleic acid)
chain: CGTCGGCTCTGTGGCGCAATGGATAGCGCATTGGACTTCAAGTGACGAATAGAGCAATTCAAAGGTTGTGGGTTCGAATCCCACCAGAGTCG
modifications: expressed or natural sequence
B6: ArgTGAchr1.trna10/nointron: ACE-tRNA Arg, TGA suppressor, SEQ ID NO: 6 (nucleic acid)
chain: CGTCGGCTCCGTGGCGCAATGGATAGCGCATTGGACTTCAAATTCAAAGGTTCCGGGTTCGAGTCCCGGCGGAGTCG
modifications: expressed or natural sequence
B7: ArgTGAchr17.trna3/nointron: ACE-tRNA Arg, TGA suppressor, SEQ ID NO: 8 (nucleic acid)
chain: CGTCGGCTCTGTGGCGCAATGGATAGCGCATTGGACTTCAAATTCAAAGGTTGTGGGTTCGAATCCCACCAGAGTCG
modifications: expressed or natural sequence
B8: TrpTGAchr17.trna10: ACE-tRNA Trp, TGA suppressor, SEQ ID NO: 49 (nucleic acid)
chain: GACCTCGTGGCGCAATGGTAGCGCGTCTGACTTCAGATCAGAAGGTTGCGTGTTCAAGTCACGTCGGGGTCA
modifications: expressed or natural sequence
B9: GlyTGAchr17.trna9: ACE-tRNA Gly, TGA suppressor, SEQ ID NO: 55 (nucleic acid)
chain: GCGTTGGTGGTATAGTGGTAAGCATAGCTGCCTTCAAAGCAGTTGACCCGGGTTCGATTCCCGGCCAACGCA
modifications: expressed or natural sequence
B10: GlyTGAchr1.trna107: ACE-tRNA Gly, TGA suppressor, SEQ ID NO: 54 (nucleic acid)
chain: GCGTTGGTGGTATAGTGGTGAGCATAGCTGCCTTCAAAGCAGTTGACCCGGGTTCGATTCCCGGCCAACGCA
modifications: expressed or natural sequence
B11: GlnTAGchr6.trna63: ACE-tRNA Gln, TAG suppressor, SEQ ID NO: 18 (nucleic acid)
chain: CGTCGGTCCCATGGTGTAATGGTTAGCACTCTGGACTCTAAATCCAGCAATCCGAGTTCGAATCTCGGTGGGACCT
modifications: expressed or natural sequence
B12: GlnTAGchr6.trna175: ACE-tRNA Gln, TAG suppressor, SEQ ID NO: 17 (nucleic acid)
chain: CGTCGGCCCCATGGTGTAATGGTTAGCACTCTGGACTCTAAATCCAGCGATCCGAGTTCAAATCTCGGTGGGACCT
modifications: expressed or natural sequence
B13: GlnTAGchr17.trna14: ACE-tRNA Gln, TAG suppressor, SEQ ID NO: 19 (nucleic acid)
chain: CGTCGGTCCCATGGTGTAATGGTTAGCACTCTGGACTCTAAATCCAGCGATCCGAGTTCAAATCTCGGTGGGACCT
modifications: expressed or natural sequence
B14: GlnTAGchr1.trna17: ACE-tRNA Gln, TAG suppressor, SEQ ID NO: 16 (nucleic acid)
chain: CGTCGGTTCCATGGTGTAATGGTGAGCACTCTGGACTCTAAATCCAGCGATCCGAGTTCGAGTCTCGGTGGAACCT
modifications: expressed or natural sequence
B15: GlnTAGchr6.trna132: ACE-tRNA Gln, TAG suppressor, SEQ ID NO: 20 (nucleic acid)
chain: CGTCGGCCCCATGGTGTAATGGTCAGCACTCTGGACTCTAAATCCAGCGATCCGAGTTCAAATCTCGGTGGGACCC
modifications: expressed or natural sequence

From patent US20230203482A1, “Methods of Rescuing Stop Codons via Genetic Reassignment with ACE-tRNA” (THE WISTAR INSTITUTE OF ANATOMY AND BIOLOGY, priority 2017, published 2023) come the findings set out here.

The first data set concerns NLuc-UGA PTC. Briefly: NanoLuc nonsense reporter screen (all-in-one HTC plasmid), TGA/UGA PTC, HEK293 cells. The data set is classed as cell-based, human. Conditions: HEK cells, luciferase 24 hours post-transfection. The text has this: Several different nonsense mutations cause CF, thus underlying roughly 10% of all CF disease. FIG. 7. These cases are concentrated into […] specific genetic lesions: E60X, R75X, G542X, R553X, Q890X, Y1092X, R1158X, R1162X and W1282X. A screen was developed to screen existing human tRNA sequences for modification and tolerance to anti-codon editing. To this end, roughly 144 ACE-tRNAs were candidates to test for those that could be used to promote the repair of the disease causative nonsense codon and the expression of the full-length protein. Specifically, using the scheme described in FIG. 11, tRNA libraries were generated to identify novel tRNA sequences that encode for ACE tRNA with the ability to repair the top CF causative nonsense mutations. Specifically, 10 ng of annealed oligos encoding the ACE-tRNAs were combined with 50 ng of NanoLuc reporter plasmid, 1 μl 10×CutSmart Buffer (NEB), 1 μl T4 ligase (NEB), 10 mM ATP and 1 μl BbsI (NEB) and cycled in a thermocycler as described in FIG. 11. 1 μl of the reaction was transformed into competent E. coli and the transformants were plated on ampicillin agar plates. One transformant was picked per plate was picked, grown in 1 ml of LB under ampicillin selection, miniprepped and sequence verified.
Screening studies were first performed to identify the best ACE-tRNA Candidates from tryptophan and glycine. 125 ng of sequence verified miniprep cDNA of NanoLuc reporter plasmid with ACE-tRNA was transfected into HEK cells using calcium phosphate. HEK cells were plated in 96 well plates at 4×10^4 the day prior. 24 hours after transfection the media was replaced with 20 μl of PBS and 15 μl of NanoGlo reagent (Promega) was added. Plates were read on a SpectraMax i3 (Molecular Devices). Data are of replicates of 3 or greater. FIG. 8.
FIG. 10. An additional modification of the tRNA was made to further enable their function for the purpose of suppression of nonsense codons and the promotion of protein expression. […] To this end, single and double mutations were directly engineered into the t-stem loop of tRNA Trpchr17.trna39—an ACE-tRNA identified with activity for the rescue of tryptophan TGA nonsense codons. Thirty-eight tRNA t-stem variants were thus generated and screened in HEK cells transiently transfected with the nonsense rescue reporter construct shown in FIG. 4. […] This is a generalizable modification, that is, new tRNA sequences identified, by example 1 and 2, can be made better (for their ability to rescue nonsense codons) through further rationale modifications. Such approaches aid in the therapeutic utility of ACE-tRNA directed to tissue types with low abundance target RNA or where tRNA delivery may be limiting.
In order to enable the identification of the nucleotide composition and functional ability to suppress nonsense codons by new types of tRNA, an All-In-One Plasmid With A One Pot Cloning Reaction was invented for High Throughput Cloning FIG. 11. This approach enables the facile investigation of ACE-tRNA activity via luciferase activity in a standard 96 well format. Briefly, synthetic nucleotide sequences encoding for tRNA are ligated into the NanoLuc Reporter plasmid, with an example of the TGA nonsense reporter plasmid variant shown in FIG. 11. […] and TAG (amber) stop codon rescue vectors have been successfully designed and implemented in FIGS. 16-19. The benefits are the approach is that DNA oligos encoding for tRNA libraries can be ligated in the NanoLuc reporter plasmid with the presence of the restriction enzyme and ligase with the reaction pushed to nearly 100% incorporation of tRNA insert (FIG. 11)-thus the ‘one-pot’ designation. The reaction is transformed into E. coli, with the resultant cDNA purified by standard methods. […]
Turning to B1, the “enhancement of the suppression ability of Trpchr17.trna39 by t-stem mutation” value was “roughly 250%”.

The data set is the same for the next values; noted with them: Table 1, Arg TGA.
As for “ArgTGAchr7.trna5: ACE-tRNA Arg, TGA suppressor, SEQ ID NO: 7”, the Ranking result is reported as “#4”.

Turning to “ArgTGAchr9.trna6/nointron: ACE-tRNA Arg, TGA suppressor, SEQ ID NO: 4”, the Ranking result is “#1”. Regarding “ArgTGAchr17.trna19: ACE-tRNA Arg, TGA suppressor, SEQ ID NO: 5”, the Ranking entry is listed as “#2”. On the same count and under the same terms, as for B2, the entry is “#6”; as for B3, “#5”. B4: the Ranking entry is “#5”. Take B5: the Ranking entry is given as “#7”.

With B6, the Ranking entry is “#3”. B7: the Ranking result is given as “#4”.

Staying with this data set, now noted: Table 7, Trp TGA.
In the case of “TrpTGAchr6.trna171: ACE-tRNA Trp, TGA suppressor, SEQ ID NO: 50”, the Ranking entry was “#3”. As for B8, the Ranking result is given as “#2”.

The data set is the same for the next values; noted with them: Table 8, Gly TGA.
With B9, the Ranking result was “#3”. Regarding B10, the Ranking result is listed as “#2”.

In a further data set the test system is NLuc-UAG PTC. Briefly: NanoLuc nonsense reporter screen (all-in-one HTC plasmid), TAG/UAG PTC, HEK293 cells. The data set is classed as cell-based, human. Conditions: Table 2, Gln TAG. The text has this: In order to enable the identification of the nucleotide composition and functional ability to suppress nonsense codons by new types of tRNA, an All-In-One Plasmid With A One Pot Cloning Reaction was invented for High Throughput Cloning FIG. 11. This approach enables the facile investigation of ACE-tRNA activity via luciferase activity in a standard 96 well format. Briefly, synthetic nucleotide sequences encoding for tRNA are ligated into the NanoLuc Reporter plasmid, with an example of the TGA nonsense reporter plasmid variant shown in FIG. 11. […] and TAG (amber) stop codon rescue vectors have been successfully designed and implemented in FIGS. 16-19. The benefits are the approach is that DNA oligos encoding for tRNA libraries can be ligated in the NanoLuc reporter plasmid with the presence of the restriction enzyme and ligase with the reaction pushed to nearly 100% incorporation of tRNA insert (FIG. 11)-thus the ‘one-pot’ designation. The reaction is transformed into E. coli, with the resultant cDNA purified by standard methods. Another benefit of the invented method is that the tRNA and reporter gen are within the single expression cassette, therefore lowering biological variability and improving data quality obtaining in resulting screens of tRNA suppression activity. The purified cDNA plasmids are then screened in high-throughput 96 well format for their ability to repair nonsense codons by inferred luciferase activity. The approach is suitable for the high-throughput screening of hundreds to thousands of tRNA for novel therapeutic activity.
The rationale of this study is rooted in the observation that there are multiple tRNA genes with unique sequences (isodecoders) for a given cognate amino acid (isoacceptors), leading to >400 tRNAs annotated in the human genome (http:lowelab.ucsc.edu/GtRNAdb/)^28, 29. First, tRNA genes were examined to identify individual ACE-tRNAs that retain suppression efficacy of PTCs in mammalian cells. In order to maximize sequence coverage, an all-in-one cDNA plasmid was generated that supports both high-throughput cloning (HTC) of ACE-tRNAs and quantitative measurement of PTC suppression using luminescence following delivery to mammalian cells, FIG. 21B. ACE-tRNA sequences were cloned as DNA oligos into the HTC plasmid using Golden Gate cloning^30 paired with ccdB negative selection^31. This strategy produced ˜100% cloning efficiency. ACE-tRNA suppression efficiency was read out from a split NanoLuc luciferase (NLuc) NanoBiT platform whereby the PTC of interest (UGA, UAA, or UAG) was introduced in-frame at the junction between the large bit and small bit domains, FIG. 21B^32, using a 96-well format and normalized to background obtained in NLuc-PTC expressing cells. Twenty-one glycine ACE-tRNAs were first evaluated for suppression of the UGA PTC, FIG. 22, top left, column 1 (violet). […] Given the high sequence conservation among the Gly-tRNAs screened for anti-codon tolerance (FIG. 27), it would be difficult to predict de novo which tRNA would be most amenable to anticodon-editing.
The parent plasmid used was pcDNA3.1(+). The cDNA encoding pNLuc was Gibson Assembled (New England Biolabs, USA) into restriction sites HindIII and XhoI. A glycine (codon gga), tryptophan ([…]), amber (tag), opal (tga) and ochre (taa), were added to amino acid position 160 during cDNA per. The pcDNA3.1(+) polyA sequence was replaced for one with no BbsI restriction sites using per based Gibson Assembly. The high throughput ACE-tRNA Golden Gate cloning site was generated by first inserting the 5′ leader sequence of the human tRNA^Tyr gene (bold) with a T7 promoter sequence upstream (italics)
tRNA gene sequences were obtained from the tRNA database tRNAscan-SE (http://gtrnadb.ucsc.edu/index.html; PMID: 26673694). […]
For the molecule B11, the Ranking entry is recorded as “#3”.

Turning to B12, the Ranking entry was “#2”. Turning to B13, the Ranking entry is listed as “#4”. On the same count and under the same terms, as for B14, the entry is “#1”; as for B15, “#5”.

The same data set, now with this note: Table 4, Trp TAG.
On to “TrpTAGchr6.trna171: ACE-tRNA Trp, TAG suppressor, SEQ ID NO: 34”, for which the Ranking entry is “#2”. Turning to “TrpTAGchr17.trna39: ACE-tRNA Trp, TAG suppressor, SEQ ID NO: 35”, the Ranking result is “#3”.
